# Experimental data taken from article PMC11463774, “Structure of the Nmd4-Upf1 complex supports conservation of the nonsense-mediated mRNA decay pathway between yeast and humans” (PLOS Biology, 2024).
# T1: Upf1-HD-His6 (S. cerevisiae Upf1 helicase domain, residues 221 to 851) (S. cerevisiae, UniProt P30771 221-851)
# T1 construct: Upf1, S. cerevisiae, helicase domain, residues 221 to 851; Used in ITC and, by the buffer D200 preparation, in the ATPase assays; also called yeast Upf1 helicase domain; source: E. coli BL21 (DE3) Gold, purified (TALON, HiTrap Heparin, S200 SEC); not shown: His6, C-terminal, kept
# T1 sequence (looked up): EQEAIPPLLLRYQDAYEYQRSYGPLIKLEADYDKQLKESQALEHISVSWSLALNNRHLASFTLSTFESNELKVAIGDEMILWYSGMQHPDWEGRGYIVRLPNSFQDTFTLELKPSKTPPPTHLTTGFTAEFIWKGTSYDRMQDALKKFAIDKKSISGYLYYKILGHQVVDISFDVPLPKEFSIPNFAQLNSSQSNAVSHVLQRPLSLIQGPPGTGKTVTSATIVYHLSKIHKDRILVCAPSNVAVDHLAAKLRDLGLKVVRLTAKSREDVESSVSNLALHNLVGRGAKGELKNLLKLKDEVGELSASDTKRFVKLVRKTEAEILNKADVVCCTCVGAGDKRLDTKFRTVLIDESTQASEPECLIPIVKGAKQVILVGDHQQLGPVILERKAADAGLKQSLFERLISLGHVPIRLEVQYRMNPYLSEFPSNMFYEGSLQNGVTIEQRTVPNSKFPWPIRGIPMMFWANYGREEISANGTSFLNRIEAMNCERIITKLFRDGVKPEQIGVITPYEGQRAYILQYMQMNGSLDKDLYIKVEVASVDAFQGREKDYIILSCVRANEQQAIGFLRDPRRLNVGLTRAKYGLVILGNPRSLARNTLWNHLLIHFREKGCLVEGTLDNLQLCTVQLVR
# T2: His6-ZZ-Nmd4 FL (Saccharomyces cerevisiae, UniProt Q12129 1-218)
# T2 sequence: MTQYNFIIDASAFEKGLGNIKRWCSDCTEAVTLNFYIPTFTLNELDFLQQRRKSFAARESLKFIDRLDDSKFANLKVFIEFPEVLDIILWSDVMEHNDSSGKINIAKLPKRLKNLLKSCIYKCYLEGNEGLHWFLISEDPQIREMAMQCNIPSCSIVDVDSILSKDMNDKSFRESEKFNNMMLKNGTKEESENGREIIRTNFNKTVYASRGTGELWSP
# T3: Upf1-HD-His6 (Saccharomyces cerevisiae, UniProt P30771 221-851)
# T3 sequence: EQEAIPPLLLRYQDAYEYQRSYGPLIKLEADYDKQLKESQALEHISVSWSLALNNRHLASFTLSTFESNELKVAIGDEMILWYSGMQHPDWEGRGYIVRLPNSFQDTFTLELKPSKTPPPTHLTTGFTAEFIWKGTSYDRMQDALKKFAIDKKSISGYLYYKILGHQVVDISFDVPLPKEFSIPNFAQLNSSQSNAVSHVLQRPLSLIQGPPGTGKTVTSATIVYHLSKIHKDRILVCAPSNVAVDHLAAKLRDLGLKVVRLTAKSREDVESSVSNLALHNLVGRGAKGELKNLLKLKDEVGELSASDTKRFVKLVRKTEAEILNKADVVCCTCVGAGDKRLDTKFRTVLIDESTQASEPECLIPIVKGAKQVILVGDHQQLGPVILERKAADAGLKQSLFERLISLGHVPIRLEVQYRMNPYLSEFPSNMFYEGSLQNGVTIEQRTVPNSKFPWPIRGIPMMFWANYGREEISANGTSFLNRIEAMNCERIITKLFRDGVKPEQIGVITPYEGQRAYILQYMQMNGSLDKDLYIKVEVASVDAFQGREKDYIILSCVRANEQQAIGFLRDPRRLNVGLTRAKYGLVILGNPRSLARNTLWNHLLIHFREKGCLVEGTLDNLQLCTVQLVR
# T4: His6-ZZ-Nmd4 FL;Upf1-HD-His6 (Saccharomyces cerevisiae;Saccharomyces …, UniProt Q12129;P30771 1-218;221-851, |)
# T4 sequence 1: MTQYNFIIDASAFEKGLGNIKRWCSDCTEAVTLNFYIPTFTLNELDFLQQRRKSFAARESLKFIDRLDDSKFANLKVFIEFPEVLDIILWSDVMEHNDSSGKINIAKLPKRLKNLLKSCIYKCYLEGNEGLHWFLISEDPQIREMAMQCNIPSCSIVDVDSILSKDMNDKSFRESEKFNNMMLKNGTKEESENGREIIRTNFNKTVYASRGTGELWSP
# T4 sequence 2: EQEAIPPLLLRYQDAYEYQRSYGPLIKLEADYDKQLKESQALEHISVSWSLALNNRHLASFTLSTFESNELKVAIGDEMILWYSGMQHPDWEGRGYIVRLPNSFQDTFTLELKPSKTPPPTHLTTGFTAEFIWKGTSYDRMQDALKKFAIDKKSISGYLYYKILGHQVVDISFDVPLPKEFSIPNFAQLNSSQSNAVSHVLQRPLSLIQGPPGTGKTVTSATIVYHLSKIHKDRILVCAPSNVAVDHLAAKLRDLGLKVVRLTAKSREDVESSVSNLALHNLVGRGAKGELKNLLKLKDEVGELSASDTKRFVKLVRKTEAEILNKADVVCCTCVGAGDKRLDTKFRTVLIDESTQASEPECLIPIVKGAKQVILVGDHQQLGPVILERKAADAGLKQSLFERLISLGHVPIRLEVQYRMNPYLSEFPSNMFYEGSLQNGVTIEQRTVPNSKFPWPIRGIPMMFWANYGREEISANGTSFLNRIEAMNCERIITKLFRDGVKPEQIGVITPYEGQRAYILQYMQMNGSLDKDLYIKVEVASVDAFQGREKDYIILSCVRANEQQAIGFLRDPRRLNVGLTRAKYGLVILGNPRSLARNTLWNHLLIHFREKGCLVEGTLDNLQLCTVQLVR
# Columns and labels:
# [1] = target: T1, Upf1-HD-His6 (S. cerevisiae Upf1 …); assay: ITC; His6-ZZ-Nmd4 proteins (260 μM full-length and « arm », 330 μM PIN) or His6-ZZ (277 μM) injected into Upf1-HD-His6 (30 to 35 μM); 20°C; 100 mM Bis-Tris pH 6.5, 200 mM NaCl, 5 mM MgCl2, 5 mM 2-mercaptoethanol; one-binding-site model; settings: both partners purified
# [2] = target: T2, His6-ZZ-Nmd4 FL; assay: ITC; 5 mM Mg2+; ITC: 100 mM Bis-Tris pH 6.5, 133 mM NaCl, 5 mM MgCl2, 5 mM 2-mercaptoethanol, 20 C; protein 20-30 uM in cell titrated with 230-280 uM RNA; settings: protein: recombinant; tags: N-terminal His6-ZZ (3C cleavable, kept for ITC); single strand
# [3] = target: T3, Upf1-HD-His6; assay: ITC; no nucleotide; 5 mM Mg2+; ITC: 100 mM Bis-Tris pH 6.5, 133 mM NaCl, 5 mM MgCl2, 5 mM 2-mercaptoethanol, 20 C; protein 20-30 uM in cell titrated with 230-280 uM RNA; settings: protein: recombinant; tags: C-terminal His6; single strand
# [4] = target: T4, His6-ZZ-Nmd4 FL;Upf1-HD-His6; assay: ITC; preformed Nmd4/Upf1-HD complex; no nucleotide; 5 mM Mg2+; n 0.47; ITC: 100 mM Bis-Tris pH 6.5, 133 mM NaCl, 5 mM MgCl2, 5 mM 2-mercaptoethanol, 20 C; protein 20-30 uM in cell titrated with 230-280 uM RNA; settings: protein: recombinant;recombinant; tags: N-terminal His6-ZZ (3C cleavable, kept for ITC);C-terminal His6; copies: 1;1; single strand
Kd [1],dH [1],stoichiometry N [1],Binder,Kd [2],Kd [3],Kd [4]
2100 nM,-14.8 kcal/mol,1.08,"His6-ZZ-Nmd4 full-length protein (S. cerevisiae) (natural protein, UniProt Q12129 1-218, looked up, also called His6-ZZ-Nmd4 FL; full-length Nmd4; source: E. coli BL21 (DE3) Gold, purified (Ni-NTA, HiTrap Heparin, S75 SEC); not shown: His6, N-terminal, kept; ZZ (tandem Z-domain of S. aureus protein A), N-terminal, kept) MTQYNFIIDASAFEKGLGNIKRWCSDCTEAVTLNFYIPTFTLNELDFLQQRRKSFAARESLKFIDRLDDSKFANLKVFIEFPEVLDIILWSDVMEHNDSSGKINIAKLPKRLKNLLKSCIYKCYLEGNEGLHWFLISEDPQIREMAMQCNIPSCSIVDVDSILSKDMNDKSFRESEKFNNMMLKNGTKEESENGREIIRTNFNKTVYASRGTGELWSP",–,–,–
1960 nM,-12.4 kcal/mol,0.98,"His6-ZZ-Nmd4 « arm » (residues 168 to 218) (domain or fragment, S. cerevisiae, UniProt Q12129 168-218, looked up, Nmd4, S. cerevisiae, C-terminal « arm », residues 168 to 218; also called « arm » region; source: E. coli BL21 (DE3) Gold, purified; not shown: His6, N-terminal, kept; ZZ (tandem Z-domain of S. aureus protein A), N-terminal, kept) NDKSFRESEKFNNMMLKNGTKEESENGREIIRTNFNKTVYASRGTGELWSP",–,–,–
–,–,–,UUUUUUUUUUUUUUUUUUUUUUUUUUUUUU (ssRNA) [RNA poly(U)30],8100 ± 2950 nM,1030 ± 280 nM,440 ± 210 nM
